Where two headings read alike, the source gives them in different places.

Holding throughout (format): cell-based, avian influenza A (H5N1)
The test system of test [1] is bird H5N1 influenza virus strain Duck/MN/1525/81.
The test system is the same in test [2]. The source holds these as a separate data set.
Test [3] has as its system bird H5N1 influenza virus strain Gull/PA/4175/83.
Test [4] has the same test system. This is another data set of the same source.
Test [5] deals with humanized H5N1 influenza virus strain Hong Kong/491/1997.
Test [6] shares this test system. This is another data set of the same source.
Test [7] deals with humanized H5N1 influenza virus strain Hong Kong/213/2003.
Test [8] has the same test system. This is another data set of the same source.
Test [9] relates to humanized H5N1 influenza virus strain Vietnam/1203/2004H.
Test [10] has the same test system. This is another data set of the same source.
Test [11] shares this test system. The source holds these as a separate data set.
Test [12] concerns all tested strains of H5N1.

B1: Cyanovirin-N (protein, listed as Nostoc ellipsosporum)
chain: LGKFSQTCYNSAIQGSVLTSTCERTNGGYNTSSIDLNSVIENVDGSLKWQPSNFIETCRNTQLAGSSELAAECKTRAQQFVSTKINLDDHIANIDGTLKYE
On to B1, for which the EC90 in [1] is 0.7 µg/mL; in test [3] it was 0.1 µg/mL; in test [5], 0.1 µg/mL; in test [9] it was 0.2 µg/mL. In addition, the 50% effective concentration (EC50) is 0.5 µg/mL in test [2], 0.1 µg/mL in [4], under 0.0032 µg/mL in [6] and 0.03 µg/mL in [11]. Moreover, the IC50 in test [2] is 2 µg/mL; in test [4], 3 µg/mL; in test [6], 3 µg/mL; in test [7] it was over 1 µg/mL; in test [8], over 1 µg/mL; in test [11], over 1 µg/mL. Besides, the “activity against the strain (in words)” value is recorded as “moderately active” in [4], “moderately active” in test [6], “highly active” in test [8] and “moderately active” in test [10]. For the same molecule, in test [12], the “activity against all tested strains of H5N1 (in words)” value is given as “active”.

The term EC90 denotes the concentration needed for an effect of 90%. As usually defined, the EC50 is the concentration that produces a half-maximal response. Low readings indicate a more potent agent, high ones a less potent agent. The IC50 is the point on the concentration scale where inhibition reaches its midpoint. Read a high IC50 as lower potency.

The record behind these values is patent US20100240578A1 (priority 2006, published 2010).
